From patent US9545446B2, “Agonists of guanylate cyclase and their uses” (priority 2013, dated 2017)
Bridges are numbered along the chain shown (N, C = ends). Where no end group is shown, it is not given here. [ ]: non-standard residue; d: D form.

Tests used:
healthy volunteers = test: Phase I multiple ascending dose study of SP-333; format: in vivo, human
Experimental: […] The maximum tolerated dose was 30 mg with 60 mg deemed an intolerable dose due to 2 instances of fecal incontinence or soiling in the 7 patients dosed with 60 mg SP-333.

intestinal GC-C receptor = intestinal GC-C receptor (Homo sapiens, UniProt P25092); test: in vitro and in vivo pharmacology studies (GC-C agonism); conditions: several in vitro and in vivo pharmacology studies
Chain of intestinal GC-C receptor (P25092 24-1073): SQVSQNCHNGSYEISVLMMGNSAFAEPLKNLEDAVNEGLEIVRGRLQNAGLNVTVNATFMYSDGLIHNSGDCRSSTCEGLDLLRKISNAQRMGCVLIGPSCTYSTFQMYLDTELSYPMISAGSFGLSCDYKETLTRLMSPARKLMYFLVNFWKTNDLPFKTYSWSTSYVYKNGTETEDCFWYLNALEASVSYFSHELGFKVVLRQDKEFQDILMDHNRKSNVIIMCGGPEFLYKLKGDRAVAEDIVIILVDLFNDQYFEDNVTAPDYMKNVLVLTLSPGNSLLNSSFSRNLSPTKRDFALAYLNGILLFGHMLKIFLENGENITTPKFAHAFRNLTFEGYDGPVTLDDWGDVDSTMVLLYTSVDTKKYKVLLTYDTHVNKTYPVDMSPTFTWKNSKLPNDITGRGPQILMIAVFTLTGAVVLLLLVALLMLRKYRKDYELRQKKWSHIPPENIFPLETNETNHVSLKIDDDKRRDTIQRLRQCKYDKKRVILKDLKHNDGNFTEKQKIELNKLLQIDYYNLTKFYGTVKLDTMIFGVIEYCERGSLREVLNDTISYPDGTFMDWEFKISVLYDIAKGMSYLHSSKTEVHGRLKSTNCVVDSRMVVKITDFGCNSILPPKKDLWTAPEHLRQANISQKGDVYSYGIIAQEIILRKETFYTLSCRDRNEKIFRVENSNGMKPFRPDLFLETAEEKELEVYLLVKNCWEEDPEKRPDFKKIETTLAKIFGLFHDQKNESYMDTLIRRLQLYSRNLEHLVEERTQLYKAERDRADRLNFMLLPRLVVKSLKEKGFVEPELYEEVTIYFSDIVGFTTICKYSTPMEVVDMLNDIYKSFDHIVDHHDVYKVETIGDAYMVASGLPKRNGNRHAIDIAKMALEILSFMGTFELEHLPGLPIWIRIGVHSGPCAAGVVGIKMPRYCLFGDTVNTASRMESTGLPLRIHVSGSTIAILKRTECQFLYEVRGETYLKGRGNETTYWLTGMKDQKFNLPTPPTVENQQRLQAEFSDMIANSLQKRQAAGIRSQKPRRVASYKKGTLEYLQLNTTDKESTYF

[1] = Phase 1 pharmacokinetic sampling (systemic absorption after oral dose); format: in vivo, human; conditions: oral doses <10 mg
Experimental: Phase 1 pharmacokinetic sampling indicated no detectable (limit of quantitation=1 ng/mL) systemic absorption of SP-333 following oral doses <10 mg; it is therefore highly unlikely that a single oral dose of 6 mg SP-333 will result in any systemic exposure.

healthy subjects = test: Phase I single ascending oral dose study of SP-333; format: in vivo, human
Experimental: Two phase 1 clinical studies with SP-333 have been completed to date and a Phase 2 trial in OIC is in progress. In the Phase I single ascending oral dose study, conducted in 64 healthy subjects, the following doses of SP-333 were tested: 0.1, 0.3, 1, 3, 10, 20, 30, and 60 mg. […] Diarrhea was the most common adverse event and was generally dose-related, with 1 mg being the threshold dose. The time to onset of diarrhea was variable but tended to decrease with increasing doses from 4 to 2 hours or less. The number of subjects with watery bowel movement rose from none (<3 mg) to 2 of 6 (3, 10 and 20 mg) to 4 of 6 (30 mg). The majority of these episodes was mild, occurred once, and was associated with urgency and in some cases mild cramping. There were no SAEs.

[2] = test system: patients scheduled to undergo colonoscopy; test: Phase 1 pilot clinical study: oral SP-333 as adjunct to SUPREP Bowel Prep Kit for cleansing of the colon prior to colonoscopy; format: in vivo, human
Experimental: This clinical study outlined above was designed to assess the effect of a single oral dose of 6 mg SP-333 when given concurrently with a standard pre-colonoscopy bowel prep—the SUPREP® Bowel Prep Kit (Braintree Laboratories, Braintree, Mass. 02185, USA). The investigator is a highly experienced gastroenterologist and oversaw all study activities and performed all colonoscopies per their usual routine.
• 1. Take Study Drug approximately 30 minutes before the start of the first bottle of the bowel prep kit. • 2. Take a 6 ounce bottle of study preparation and pour the entire contents into the mixing cup provided. Fill the cup with cool water to the fill line (16 ounces) and drink the entire cup of solution. • 3. Drink two (2) 16 ounce glasses of WATER over the next hour. Fill the mixing cup with water up to the fill line (16 ounces) and drink the entire glass. Morning of Colonoscopy
At least 3 hours prior to colonoscopy: • 1. Take the second 6 ounce bottle of study preparation and pour the entire contents into the mixing cup provided. Fill the cup with cool water to the fill line (16 ounces) and drink the entire cup of solution. • 2. Drink two (2) 16 ounce glasses of WATER over the next hour. Fill the mixing cup with water up to the fill line (16 ounces) and drink the entire glass. • Patient must complete the solution and additional water at least 2 hours before colonoscopy.
The primary endpoint of this study was bowel preparation treatment success as determined by the investigator (bowel preparation will be rated by the Investigator as “Excellent”, “Good”, “Fair” or “Poor”). A successful bowel preparation treatment is defined as bowel cleansing graded either “Excellent” or “Good” by the investigator (See Table 10).
Patients were consented for the study at the same time that informed consent was obtained for the colonoscopy procedure. Each successfully consented & recruited patient took a single dose of 6 mg SP-333 in the evening before the colonoscopy—approximately 30 minutes prior to ingestion of the first bottle of the SUPREP® Bowel Prep Kit (See Section entitled “Patient Instructions for SUPREP® Bowel Prep Kit” above).
Bowel preparation treatment success rate was described; formal hypothesis testing was not performed.
The volume of intra-procedural water required to improve visualization, the proximal insertion depth of the colonoscope and whether or not the right colon and cecum were completely visualized were recorded in the Colonoscopy Procedure Record.

[3] = 6 mg oral daily dose, healthy volunteers
[4] = 6 mg SP-333 added to standard colonoscopy cleansing preparation (SUPREP), 9 patients

Substance: dAsn^1-Asp^2-Glu^3-Cys^4-Glu^5-Leu^6-Cys^7-Val^8-Asn^9-Val^10-Ala^11-Cys^12-Thr^13-Gly^14-Cys^15-dLeu^16 ([dN]DECELCVNVACTGC[dL]; disulfide 4-12, 7-15) [SP-333]
- additional AEs (healthy volunteers; [3]): No additional AEs of note
- effect of dose in Phase 1 studies (basis of dose selection) (healthy volunteers; [3]): self-limited diarrhea (watery stools) with mild urgency
- instances of fecal incontinence or soiling (healthy volunteers; 60 mg daily for 7 days, 7 patients dosed): 2
- changes in hematology, clinical chemistry, or urinalysis parameters (healthy volunteers; any dose level): no clinically meaningful changes
- changes in vital sign or ECG parameters (healthy volunteers; any dose level): no clinically meaningful changes
- overall safety and tolerability (healthy volunteers; daily 0.3, 1, 3, 10, 30 mg for 14 days or 60 mg for 7 days, 89 subjects): generally safe and well-tolerated
- maximum tolerated dose (healthy volunteers; daily doses for 14 days): 30 mg
- intolerable dose (healthy volunteers; daily for 7 days, due to fecal incontinence or soiling): 60 mg
- most commonly reported TEAEs (treatment-emergent adverse events) (healthy volunteers; mild or moderate intensity): gastrointestinal disorders (primarily diarrhea and defecation urgency)
- subjects with a serious adverse event (SAE) (healthy volunteers; multiple ascending dose): no subject
- subjects withdrawn from the study due to a TEAE (healthy volunteers; multiple ascending dose): no subject
- agonism of the intestinal GC-C receptor (intestinal GC-C receptor): potent agonist
- systemic absorption (not detectable; limit of quantitation) [1]: < 1 ng/mL
- severity of the majority of watery bowel movement episodes (healthy subjects; occurred once, associated with urgency, in some cases mild cramping): mild
- changes in clinical laboratory test results, ECG or vital signs (healthy subjects; single ascending oral dose): No clinically meaningful changes
- serious adverse events (SAEs) (healthy subjects; single ascending oral dose): no SAEs
- threshold dose for diarrhea (healthy subjects; single ascending oral dose): 1 mg
- most common adverse event (healthy subjects; single ascending oral dose, generally dose-related): Diarrhea
- number of subjects with watery bowel movement (healthy subjects; single oral dose 30 mg): 4 of 6
- number of subjects with watery bowel movement (healthy subjects; single oral dose 3, 10 and 20 mg): 2 of 6
- number of subjects with watery bowel movement (healthy subjects; single oral dose <3 mg): none
- overall safety and tolerability (healthy subjects; single oral doses 0.1, 0.3, 1, 3, 10, 20, 30, 60 mg, 64 healthy subjects): safe and well tolerated
- time to onset of diarrhea (healthy subjects; variable, tended to decrease with increasing doses, to 2 hours or less): 4 to 2 hours
- colonoscopy procedure outcome [2, 4]: safe and successful procedure
- visualization of the colon as observed by the gastroenterologist [2, 4]: better visualization of the entire colon
- tolerability of combination with standard colonoscopy preparation ([2]; single oral 6 mg SP-333 evening before colonoscopy plus SUPREP Bowel Prep Kit, 9 patients): very well
- ease of preparation as judged by subjects with previous colonoscopies ([2]; versus past colon cleansing preparation without SP-333): much easier
